In US10280200B2, “Non-natural consensus albumin binding domains” (Janssen Biotech, Inc., priority 2012, dated 2019):

How the values were obtained:
[1] = Solubility after expression and purification from E. coli; assay type: physicochemical; conditions: expressed and purified from E. coli
[2] = molecular target: human serum albumin (Homo sapiens, UniProt P02768); experiment: Kinetics of binding to immobilized human serum albumin, ProteOn XPR-36 surface plasmon resonance; conditions: read-out: KD (affinity) to human albumin, conditions specified herein
Description: Human (SEQ ID NO: 36), Rhesus (SEQ ID NO: 37), and murine (SEQ ID NO: 38) serum albumins were purchased from Sigma (Catalogue # A4327 for human, #A3559 for murine, and #A4297 for rhesus) and resuspended in PBS at different concentrations. Each serum albumin was directly immobilized on a ligand channel in the vertical orientation of a GLC chip via standard amine coupling at 2.1 μg/mL at pH 5.0 to obtain surfaces with ligand densities of 500-1000 resonance units. […] The dissociation phases for all concentrations were monitored for two hours at a flow rate of 100 μL/min using PBST (PBS, 0.005% Tween20) as running buffer. A sixth sample (buffer only) was injected to monitor the baseline stability. The surfaces were regenerated using 1 short pulse (18 μL) of 0.8% phosphoric acid.
The raw response data were first processed by subtracting the buffer only responses and the non-specific binding between the analytes and the chip. Processed data of all five concentrations were globally fit to a 1:1 simple langmuir binding model for each ligand surface.

[3] = Thermal stability by differential scanning calorimetry (DSC) in PBS; assay type: physicochemical
Description: A second identical scan was completed on the sample in order to assess the reversibility of thermal folding/unfolding. Data was fit to a 2-state unfolding model in order to calculate the melting temperature.
The melting temperature of ABDCon12 was determined by differential scanning calorimetry using the procedures outlined in Example 2 above in order to investigate the mechanism of stabilization for this molecule.

[4] = Stability on incubation in PBS at 37° C. for 28 days, SDS-PAGE and Mass Spectrometry; assay type: physicochemical; conditions: PBS pH 7.4, 37° C.
Description: The FN3 domain-ABDCon fusion proteins were generated using standard cloning techniques. The amino acid sequence of one of the fusion proteins, Tencon-ABDCon is shown in SEQ ID NO: 41. Other FN3 domain-ABDCon fusion proteins made were Tencon25-ABDCon, 83-ABDCon and 71-ABDCon. These proteins were produced with c-terminal poly histidine tags and purified by a combination of nickel affinity and size exclusion chromatography using standard methods. Each purified molecule was incubated in PBS pH 7.4 at 37° C. for 28 days before analysis by SDS-PAGE and Mass Spectrometry.
However one peptide sequence, TIDEWL (SEQ ID NO: 43), is present N-terminal to 5 of these protein domains. […] This protein was expressed with an N-terminal poly histidine tag and purified to homogeneity using standard methods for nickel affinity chromatography and size exclusion chromatography. Purified ABDCon12 was incubated at 37° C. in PBS for 28 days and stability assessed by SDS-PAGE and mass spectrometry.

[5] = Serum half-life / pharmacokinetics of fusion proteins in mice (MSD sandwich ELISA of serum); assay type: in vivo, BALB/c female mice
Description: Tencon25 is a protein scaffold based on a consensus sequence of a fibronectin type III (FN3) repeat protein having a sequence shown in residues 1-90 of SEQ ID NO: 39, and described in US2011/0274623A1. […] The resulting fusion protein has a polypeptide sequence shown in SEQ ID NO: 39. A poly-histidine tag was incorporated at the C-terminus for purification purposes. […] BALB/c female mice were split into 3 groups (N=3 group 1 non-treated control, and N=33 groups 2-3). Mice were treated with a single intravenous dose of the Tencon25-ABDCon fusion protein at 2 mg/kg. The dosing was based upon the weight of the animals on the day of administration. The mice were euthanized at the following time points after the injection: 10 min, 30 min, 1, 4, 6, hours, and 1, 2, 3, 7, 10, 14 days. Blood samples were taken from each animal via cardiac puncture. The blood samples were allowed to clot at room temperature for 30 minutes, but no longer than 1 hour. The blood samples were then centrifuged at approximately 3,500 rpm for 15 minutes. Serum samples were analyzed using a homogenous sandwich ELISA on the Mesoscale Discovery platform. Streptavidin-Gold plates (Mesoscale Discovery) were blocked for 1 hour with Superblock (TBS) Tween-20 (Thermo). Polyclonal anti-Tencon25 antibody was used for both capture (biotinylated) and detection (labeled with MSD Sulfo-Tag (Mesoscale Discovery)) at 0.625 μg/ml. The antigen and antibodies were added to the plates, which were incubated for 2 hours with vigorous shaking at RT. Plates were washed with TBS-T (Sigma) and MSD Read Buffer with Surfactant (Mesoscale Discovery) was added. The plates were read using the MSD Sector Imager 6000. Data was analyzed using GraphPad Prism. Previous studies have shown that a similar, unfused Tencon molecule is cleared from the bloodstream quickly with a serum half-life of approximately 20 minutes in mice.
These molecules were dosed into mice at 2 mg/kg as described above in previous studies and analyzed using identical methods as described for the Tencon25-ABDCon fusions.

Molecule: ABDCon11: ABDCon mutant A37Y, SEQ ID NO: 34 (LKEAKEKAIEELKKAGITSDYYFDLINKAKTVEGVNYLKDEILKA; Non-natural albumin binding domain ABDCon11)
- solubility of the expressed mutant [1]: insoluble

Molecule: ABDCon: non-natural albumin binding domain consensus, SEQ ID NO: 21: […] (LKEAKEKAIEELKKAGITSDYYFDLINKAKTVEGVNALKDEILKA; not fully specified)
- Kd [2]: 0.075 nM

Molecule: ABDCon12: ABDCon with TIDEWL added to the N-terminus, SEQ ID NO: 44 (TIDEWLLKEAKEKAIEELKKAGITSDYYFDLINKAKTVEGVNALKDEILKA; ABDCon12)
- melting temperature (thermal stability) [3]: 90.9 °C
- increase of melting temperature compared to the original ABDcon molecule ([3]; DSC in PBS): 9.4 °
- stability (degradation) after incubation [4]: degradation is occurring exclusively in the polyhistidine tag and not in the ABDCon12 sequence

B1: Tencon25-ABDCon: fusion of ABDCon to the c-terminus of Tencon25 FN3 scaffold by a (G4S)2 linker, SEQ ID NO: 39 (protein)
chain: MLPAPKNLVVSEVTEDSARLSWTAPDAAFDSFLIQYQESEKVGEAIVLTVPGSERSYDLTGLKPGTEYTVSIYGVKGGHRSNPLSAIFTTGGGGSGGGGSLKEAKEKAIEELKKAGITSDYYFDLINKAKTVEGVNALKDEILKA
modifications: Fusion protein Tencon25-ABDcon
- stability (degradation) after incubation [4]: degraded
- AUC ([5]; 2 mg/kg intravenously): 2054.332 µg·h/mL
- Clearance ([5]; 2 mg/kg intravenously): 22.93 mL/day/kg
- T (½) ([5]; 2 mg/kg intravenously): 60.42 h
- Volume of Distribution ([5]; 2 mg/kg intravenously): 0.0832873 L/kg
- serum half-life ([5]; single intravenous dose 2 mg/kg): over 60 hours

B2: Tencon-ABDCon: FN3 domain-ABDCon fusion protein, SEQ ID NO: 41 (protein)
chain: MLPAPKNLVVSEVTEDSLRLSWTAPDAAFDSFLIQYQESEKVGEAINLTVPGSERSYDLTGLKPGTEYTVSIYGVKGGHRSNPLSAEFTTGGGGSGGGGSLKEAKEKAIEELKKAGITSDYYFDLINKAKTVEGVNALKDEILKA
modifications: Tencon-ABDCon fusion protein
- stability (degradation) after incubation [4]: degraded
